Measurements from patent US20020141999A1 (IMMUNEX, published 2002).

Columns and labels:
[1] = target: T1, murine CD7, full length, on cells (mouse, UniProt P50283 24-210); assay: HuK12-Fc on transfected COS-1 cells, 125I anti-human Fc, phosphorimager
T1 construct: On transfected COS-1 cells; For the proliferation read-out it is endogenous on BALB/c lymph node cells; also called MuCD7; mouse CD7
T1 chain: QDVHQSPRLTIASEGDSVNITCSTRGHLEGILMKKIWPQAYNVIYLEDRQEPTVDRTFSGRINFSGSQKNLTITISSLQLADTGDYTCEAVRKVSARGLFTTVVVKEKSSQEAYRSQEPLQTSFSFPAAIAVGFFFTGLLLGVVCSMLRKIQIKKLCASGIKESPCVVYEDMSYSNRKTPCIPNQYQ
Protocol: COS-1 cells were transfected with an expression vector encoding full length HuCD7 (human CD7), HuCD7-TR (human CD7 containing an internal deletion of the 36 amino acid tandem repeat), MuCD7 and vector only cDNA using DEAE-Dextran. However, any of a large number of expression vectors that are commercially available from numerous companies (e.g., Clontech Inc., Palo Alto, Calif.) could also be used to express the desired cDNAs. Two days post transfection the cells were assayed for the capacity to bind HuK12-Fc as previously described for other Fc fusion proteins (Lyman et al.,1993, Cell 75:1157-1167) with the following modifications. The binding media (RPMI 1640, 1%FBS, 0.02% NaAzide, 20 mM HEPES, pH7.2) was modified to include […] MnCl₂. In some experiments, the transfected cells were incubated with zero, 20 ug/ml or 2 mg/ml of Con A in BM/MM prior to binding with the Fc proteins. Following incubation for 30 minutes at room temperature and the continued presence of Con A, 1 ug/ml of either HuK12-Fc or MuK12-Fc was then added to the appropriate slides. Binding of the Fc protein was detected with [¹²⁵I] mouse anti-Human Fc antibody as previously described (Lyman, 1993). After binding the iodinated antibody, the cells were washed and then the radioactivity was quantitated by Storm Phosphorimager. […]

[2] = target: T2, human CD7, full length, on cells (human, UniProt P09564 26-240); assay: preliminary cell binding experiments on Jurkat and KG-1 cells
T2 construct: On transfected COS-1 or CV-1/EBNA cells, and endogenous on Jurkat, KG-1 and NK cells; also called HuCD7
T2 sequence: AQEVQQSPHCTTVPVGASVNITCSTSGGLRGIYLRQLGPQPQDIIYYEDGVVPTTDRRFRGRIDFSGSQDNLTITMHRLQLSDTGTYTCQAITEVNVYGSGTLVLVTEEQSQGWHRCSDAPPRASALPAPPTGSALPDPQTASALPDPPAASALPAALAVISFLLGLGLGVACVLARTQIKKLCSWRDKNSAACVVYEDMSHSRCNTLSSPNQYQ

[3] = target: T3, murine K12, full length, on transfected cells (mouse, UniProt Q9JL59 29-212); assay: Fc fusion binding to transfected cells, detected with 125I anti-human Fc
T3 construct: also called mouse K12; murine homologue of K12
T3 sequence: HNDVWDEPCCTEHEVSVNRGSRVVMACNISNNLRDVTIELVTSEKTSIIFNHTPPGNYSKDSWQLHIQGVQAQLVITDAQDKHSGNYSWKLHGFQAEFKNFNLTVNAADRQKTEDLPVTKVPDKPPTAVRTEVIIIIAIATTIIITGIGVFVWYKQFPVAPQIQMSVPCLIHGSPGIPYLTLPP

[4] = target: T4, human K12, full length, on transfected cells (human, UniProt Q8WVN6 29-248); assay: as above
T4 construct: also called SECTM1
T4 sequence: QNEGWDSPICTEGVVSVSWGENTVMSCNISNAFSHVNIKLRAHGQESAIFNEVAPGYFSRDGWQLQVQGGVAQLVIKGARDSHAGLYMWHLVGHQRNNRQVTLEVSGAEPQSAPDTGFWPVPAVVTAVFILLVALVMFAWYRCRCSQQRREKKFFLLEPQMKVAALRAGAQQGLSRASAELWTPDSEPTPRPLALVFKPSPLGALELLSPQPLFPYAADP

[5] = target: T2, human CD7, full length, on cells; assay: Fc fusion binding to transfected cells (Example 5)

B1: human K12-Fc fusion protein (extracellular domain of human K12 fused to the Fc portion of human IgG1) (Fc fusion)
chain: QNEGWDSPICTEGVVSVSWGENTVMSCNISNAFSHVNIKLRAHGQESAIFNEVAPGYFSRDGWQLQVQGGVAQLVIKGARDSHAGLYMWHLVGHQRNNRQVTLEVSGAEPQSAPDTG
notes: Exists as a dimer in solution; No linker or junction is described; also called HuK12-Fc; HuK12Fc; not shown: Fc portion of human IgG1, as described in U.S. Pat. No. 5,457,035
fold less binding than to full length HuCD7 [1]: ~4 fold | Ka [2]: ~1e+08 M⁻¹

B2: human CD7-Fc fusion protein (Fc fusion)
chain: AQEVQQSPHCTTVPVGASVNITCSTSGGLRGIYLRQLGPQPQDIIYYEDGVVPTTDRRFRGRIDFSGSQDNLTITMHRLQLSDTGTYTCQAITEVNVYGSGTLVLVTEEQSQGWHRCSDAPPRASALPAPPTGSALPDPQTASALPDPPAASALP
notes: not shown: Fc portion of the CD7-Fc fusion is not described
binding result [3]: no binding

B3: murine CD7-Fc fusion protein (Fc fusion)
chain: QDVHQSPRLTIASEGDSVNITCSTRGHLEGILMKKIWPQAYNVIYLEDRQEPTVDRTFSGRINFSGSQKNLTITISSLQLADTGDYTCEAVRKVSARGLFTTVVVKEKSSQEAYRSQEPLQTSFSFP
notes: also called mouse CD7-Fc; not shown: Fc portion of the CD7-Fc fusion is not described
binding result [4]: no binding

B4: mouse K12-Fc fusion protein (extracellular domain of murine K12 fused to the Fc portion of human IgG1) (Fc fusion)
chain: HNDVWDEPCCTEHEVSVNRGSRVVMACNISNNLRDVTIELVTSEKTSIIFNHTPPGNYSKDSWQLHIQGVQAQLVITDAQDKHSGNYSWKLHGFQAEFKNFNLTVNAADRQKTEDLPVTKVPDKPPTAVRTE
notes: Exists as a dimer in solution; also called MuK12-Fc; not shown: Fc portion of human IgG1, as described in U.S. Pat. No. 5,457,035
binding result [5]: no binding
